Two sequences from patent US10851403B2, “Cyclin-dependent kinase substrate” (SYSMEX CORPORATION, priority 2017, dated 2020) can be followed below.

For one assay, the target named is T1, CDK6/cyclin D3 (Homo sapiens, UniProt Q00534).
T1 construct: purchased SignalChem
The assay can be described thus: CDK reactivity test 6 (Test Example 6), automated immunoassay system HISCL-800. In kind it is biochemical. The following applies: 0.01 to 10 μg/mL CDK1/A2, CDK2/E1, CDK4/D3 or CDK6/D3; ATP; anti-phospho-antibody; 42° C. 3 minutes. The protocol:
The reactivity of the polypeptide (Polypeptide 28) obtained in Production Example 5 to CDK1, CDK2, CDK4 and CDK6 was examined using an automated immunoassay system (manufactured by Sysmex Corporation, HISCL-800). Specifically, it was performed as follows.
In a well of a plate, 30 μL of a CDK solution (composition: 0.01 to 10 μg/mL CDK/cyclin complex, 1% BSA, triethanolamine buffer solution (pH 7.5)) containing CDK1/cyclin A2, CDK2/cyclin E1, CDK4/cyclin D3 or CDK6/cyclin D3 (all manufactured by SignalChem) and 30 μL of a kinase reaction solution (composition: 4 μg/mL substrate peptide, 50 mM HEPES-NaOH buffer solution (pH 7.4), 15 mM MgCl2, 16 mM ATP) containing Polypeptide 28 as a substrate peptide were mixed, and the plate was incubated at 42° C. for 3 minutes. 30 μL (containing 0.15 μg of magnetic St-Ab beads) of a HISCL HBsAg R2 reagent (manufactured by Sysmex Corporation) was added to the well, and the plate was incubated at 42° C. for 2 minutes. The beads in the well were precipitated using a magnet, and the supernatant was removed. Then, a HISCL washing solution (manufactured by Sysmex Corporation) was added, and the beads were washed by shaking several times. […] Luminescence was detected with a luminometer, and the luminescence intensity was measured.

A further assay addresses T2, CDK4/cyclin D3 (Homo sapiens, UniProt P11802).
T2 construct: purchased SignalChem
The assay can be described thus: CDK reactivity test 3 (Test Example 3). As to conditions: luminescence intensity when using CDK6 set as 100%, HRP-labeled anti-FITC antibody. In kind it is biochemical. The protocol:
The reactivity of the polypeptides obtained in Production Example 3 to CDK1, CDK2, CDK4 and CDK6 was examined. Specifically, it was performed as follows.
In a well of a hydrophilic filter plate, 30 μL of a CDK solution (composition: 10 μg/mL CDK/cyclin complex, 1% BSA, triethanolamine buffer solution (pH 7.5)) containing CDK1/cyclin A2, CDK2/cyclin E1, CDK4/cyclin D3 or CDK6/cyclin D3 (all manufactured by SignalChem) and 30 μL of a kinase reaction solution (composition: 4 μg/mL substrate peptide, 50 mM HEPES-NaOH buffer solution (pH 7.4), 15 mM MgCl2, 2 mM ATP-γS) containing any of Comparative Polypeptides 2 to 4 as a substrate peptide were mixed, and the plate was incubated at 37° C. for 1 hour with stirring at 900 rpm using a constant temperature shaker. The reaction solution was recovered by centrifugation (4° C., 2000 rpm, 5 minutes), and 28.6 μL of the reaction solution was dispensed into each well of a PCR plate. […] Luminescence was detected with a luminescence plate reader, and the luminescence intensity was measured. For each polypeptide, the relative value of the luminescence intensity when using other CDKs, in the case where the luminescence intensity when using CDK6 was set as 100%, was calculated.

No end group written: not given here. *: point of attachment. Biotin = O=C1N[C@H]2[C@H](CS[C@H]2CCCCC(=O)*)N1; Ahx = NCCCCCC(=O)O

T2 sequence (P11802 whole entry): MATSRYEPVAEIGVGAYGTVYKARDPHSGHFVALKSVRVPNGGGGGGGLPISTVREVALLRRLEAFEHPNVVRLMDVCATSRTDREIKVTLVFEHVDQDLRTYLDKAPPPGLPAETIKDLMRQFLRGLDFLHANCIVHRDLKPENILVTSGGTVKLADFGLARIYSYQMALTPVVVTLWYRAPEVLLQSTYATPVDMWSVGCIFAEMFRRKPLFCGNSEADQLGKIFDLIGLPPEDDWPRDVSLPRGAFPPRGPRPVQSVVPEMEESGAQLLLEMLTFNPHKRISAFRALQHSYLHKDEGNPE
T2 sequence (P30281 whole entry partner): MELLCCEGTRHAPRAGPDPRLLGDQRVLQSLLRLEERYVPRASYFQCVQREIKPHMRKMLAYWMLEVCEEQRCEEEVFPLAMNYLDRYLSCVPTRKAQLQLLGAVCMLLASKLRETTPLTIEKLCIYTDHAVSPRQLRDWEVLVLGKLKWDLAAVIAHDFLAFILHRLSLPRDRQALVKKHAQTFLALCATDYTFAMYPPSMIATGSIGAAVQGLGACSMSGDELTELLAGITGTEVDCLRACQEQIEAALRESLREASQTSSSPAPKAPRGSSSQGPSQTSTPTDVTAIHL
T1 sequence (Q00534 whole entry): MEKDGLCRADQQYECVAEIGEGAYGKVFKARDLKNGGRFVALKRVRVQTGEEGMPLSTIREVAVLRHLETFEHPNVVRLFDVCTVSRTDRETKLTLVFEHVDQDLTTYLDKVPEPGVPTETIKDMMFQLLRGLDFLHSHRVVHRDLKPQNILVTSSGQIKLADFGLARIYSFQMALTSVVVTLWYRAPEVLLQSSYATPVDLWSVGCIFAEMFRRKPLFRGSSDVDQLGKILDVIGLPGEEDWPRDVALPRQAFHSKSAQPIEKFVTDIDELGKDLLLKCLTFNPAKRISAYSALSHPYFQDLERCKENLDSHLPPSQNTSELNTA
T1 sequence (P30281 whole entry partner): as the sequence (P30281 whole entry partner) above

As to “GAPWSPDPWDDGGGG ({Biotin-Ahx}-GAPWSPDPWDDGGGG) [Polypeptide 28, acidic-residue mutant of Polypeptide 3, N-terminal biotin via aminohexane linker]”, the “specific detection of CDK (luminescence intensity versus CDK concentration, FIG. 3)” value with CDK6/cyclin D3 is recorded as “a substrate capable of specifically detecting CDK6”.

Consider “PYKISEGLPTPAKMAPRSRI (PYKISEGLPTPAKMAPRSRI-NH2; not fully specified (N-terminus)) [Comparative Polypeptide 4, Comparative Polypeptide 3 with the CDK4 phosphorylation site residue replaced with alanine; N-terminal biotin]”, for which the “relative value of the luminescence intensity” value in the assay with CDK4/cyclin D3 was “Not detected”.
